# Experimental data published in publication PMC10991250, “Efficient synthesis 1,4-cyclohexanedicarboxaldehyde by an engineered alcohol oxidase” (Bioresources and Bioprocessing, 2022).
# Substitutions are numbered along the chain they refer to. Numbers in names are those of the source.
# B1: AcCO (Pseudarthrobacter chlorophenolicus A6) (protein)
# chain: MHIDNIENLSDRGFDYVVIGGGSAGAAVAARLSEDPDVSVALVEAGPDDRNIPEILQLDRWMELLESGYDWDYPIEPQENGNSFMRHARAKVMGGCSSHNSCIAFWAPREDLDEWESKYGATGWNAANAWPLYKRLETNQDAGPDAPHHGDSGPVHLMNVPPADPSGVALLDACEEAGIPRARFNTGTTVVNGANFFQINRRGDGTRSSSSVSYIHPIIERDNFTLLTGLRARQLVFDADKRCTGVEVVDGAFGRTHRLTARHEVILSTGAIDSPKLLMLSGIGPAEHLAQHGIEVLVDSPGVGENLQDHPEGVVQFEAKQPMVQTSTQWWEIGIFTPTEDGLDRPDLMMHYGSVPFDMNTLRHGYPTTENGFSLTPNVTHARSRGTVRLRSRDFRDKPMVDPRYFTDPEGHDMRVMVAGIRKAREIAAQPAMSAWTGRELSPGVGAQTDEELQDYIRKTHNTVYHPVGTVRMGADDDGMSPLDARLRVKGVTGLRVADASVMPEHVTVNPNITVMMIGERCADLIKADYAGADALEEKELTTSFA
# notes: codon-optimized synthetic gene in pET-28a(+) (BamHI/EcoRI), E. coli BL21(DE3), purified by AKTA; FAD-dependent
# B2: AcCO (Pseudarthrobacter chlorophenolicus A6; H351V/N378S/Q329N/S101A) (protein)
# chain: B1 chain with S101A, Q329N, H351V, N378S
# notes: as for B1
# B3: AcCO (Pseudarthrobacter chlorophenolicus A6; H351V/N378S/S101A) (protein)
# chain: B1 chain with S101A, H351V, N378S
# notes: as for B1
# B4: AcCO (Pseudarthrobacter chlorophenolicus A6; S101A) (protein)
# chain: B1 chain with S101A
# notes: as for B1
# B5: AcCO (Pseudarthrobacter chlorophenolicus A6; H351V) (protein)
# chain: B1 chain with H351V
# notes: as for B1
# B6: AcCO (Pseudarthrobacter chlorophenolicus A6; H351V/S101A) (protein)
# chain: B1 chain with S101A, H351V
# notes: as for B1
# Substrate: OCC1CCC(CO)CC1
# Assay: initial rate of HMCA formation by GC, Michaelis-Menten fit
# Type: biochemical, Pseudarthrobacter chlorophenolicus
# Settings: 1-100 mM CHDM, air-saturated O2, 100 mM potassium phosphate pH 8.0, 30 °C, 5% DMSO, 0.1 g/L catalase
# Source text: initial rate of HMCA formation by GC, Michaelis-Menten fit on AcCO
Protein,Km,kcat,kcat/Km
B1,15.30 ± 0.14 mM,0.00267 ± 0.000467 s⁻¹,0.167 M⁻¹ s⁻¹
B2,1.12 ± 0.19 mM,0.0367 ± 0.00717 s⁻¹,32.7 M⁻¹ s⁻¹
B3,7.63 ± 0.72 mM,0.0312 ± 0.002 s⁻¹,4 M⁻¹ s⁻¹
B4,13.45 ± 0.23 mM,0.00617 ± 0.00107 s⁻¹,0.45 M⁻¹ s⁻¹
B5,13.36 ± 0.12 mM,0.00683 ± 0.00045 s⁻¹,0.517 M⁻¹ s⁻¹
B6,10.21 ± 0.46 mM,0.02183 ± 0.000183 s⁻¹,2.17 M⁻¹ s⁻¹

# Substrate: O=CC1CCC(CO)CC1
# Assay: initial rate of CHDA formation by GC, Michaelis-Menten fit
# Type: biochemical, Pseudarthrobacter chlorophenolicus
# Settings: 1-100 mM HMCA, air-saturated O2, 100 mM potassium phosphate pH 8.0, 30 °C, 5% DMSO, 0.1 g/L catalase
# Source text: initial rate of CHDA formation by GC, Michaelis-Menten fit on AcCO
Protein,Km,kcat,kcat/Km
B1,26.81 ± 0.19 mM,0.000717 ± 0.000217 s⁻¹,0.0267 M⁻¹ s⁻¹
B2,5.24 ± 0.28 mM,0.0157 ± 0.000717 s⁻¹,3 M⁻¹ s⁻¹
B3,6.81 ± 0.13 mM,0.00883 ± 0.002 s⁻¹,1.3 M⁻¹ s⁻¹
B4,20.42 ± 0.12 mM,0.00233 ± 0.000367 s⁻¹,0.114 M⁻¹ s⁻¹
B5,16.24 ± 0.11 mM,0.004 ± 0.000367 s⁻¹,0.247 M⁻¹ s⁻¹
B6,14.44 ± 0.46 mM,0.00683 ± 0.000233 s⁻¹,0.473 M⁻¹ s⁻¹
